Results taken from the nanobody polyreactivity screen of Harvey et al. (2022).

Test: yeast display, Sf9 membrane polyspecificity reagent, FACS + sequencing; frameworks hold sequencing errors
Outline: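 Galactose-induced (36–48 hours) yeast carrying a synthetic nanobody display library were exposed to 10% biotinylated, detergent-solubilized Sf9 membrane reagent at 4 °C for 1 hour. FACS followed streptavidin microbead enrichment, using low and high (top ~1%) gates for expression (anti-HA) and reagent binding (streptavidin). Colony PCR, MiSeq 2 × 250 sequencing and CDR-length filtering followed. Labels for polyreactivity reflect the gate of origin.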

Sequence | polyreactivity (PSR sort gate)
QVQLVESGGGLVQAGGSLRLSCADSGSTFPYYTMGWYRQAPGKEREFVAAISRSTGRTSYADSVKGRFTISRDNAKNTVYLQMNSVKPEDSAVYDCAVRWYYYRDDTIYVLGRYDYWGQGTQVSVSS | high polyreactivity
QVQLVESGGGLVQAGGSLRLSCADSGSTFYRNAMGWYRQAPGKERELVASINNRGSTYYADSVKGRFTISRDNAKNTVYLQMNRLKPEDTAVYYFAATESWDYDYWGQGTQVTVSS | low polyreactivity
QVQLVESGGGLVQAGGSLRLSCADSGSTIFGNAMGWYRQAPGKERELVAAISYSGDSTYYADSVKGRFTISRDNAMNTVYLQMNSLKPEDTAVYYCAAGFVIKYDFWGQGTQVTVSS | low polyreactivity
QVQLVESGGGLVQAGGSLRLSCADSGSTLRRNAMGWYRQAPGKERELVAAISRTGASTYYADSVKGRFTISRDNAKNTVYLQMNSLKPEDTAVYYCAARANYIFFGMDYWGQGTQVTVSS | high polyreactivity
QVQLVESGGGLVQAGGSLRLSCADSGSTLYRYAMGWYRQAPGKERELVDAISSAGSTHYADSVKGRFTISRDNAKNTVYLQMNSLKPEDTAVYYCNAVRKTFDYNYWGQGTQVTVSS | high polyreactivity
QVQLVESGGGLVQAGGSLRLSCADSVSIFRVNAKRWYTQAPGKERELVAGISSRGGTSTYYADSVKGRFTISRDNAKNTVYLQMNSLKPEDTAVYYCNKTDITTSRHDYWRQGTQVTVSS | low polyreactivity
QVQLVESGGGLVQAGGSLRLSCADSVSTFQPNAMGSYRQAPGKERELVAAISRGGSTKYAYSVKGRITISRDSAKNTVYLQMNSLKPEDTAVYYRAVVFYRHVGYSGYYYWGQGTQVTVSS | low polyreactivity
QVQLVESGGGLVQAGGSLRLSCAESGLTFWDYVMGWYRQAPGKEMELVAAISDSGGDTYYADSVKGRFTISRDNAKNTVYLQMNSLKPEDTAVYYCAAEYAEYVLEYYRLYEYWGQGTQVTVSS | high polyreactivity
QVQLVESGGGLVQAGGSLRLSCAEYDMGWYRQAPGKERELVATITARGGSTYADSVKGRFTISRDNAKNTVYLQMNSLKPEDTAVYYCAADRFFWLRSYPRYYYWGQGTQVTVSS | low polyreactivity
QVQLVESGGGLVQAGGSLRLSCAGSGFSFPNNGMGGYRQAPGKERELVAAIRSSGGSTYYADSVKGRFTISRDNAKNTVYLQMNSLKPEDTAVYYCNARRRGGYVGRPRYPVAAYDYWGQGTQVTVSS | low polyreactivity
QVQLVESGGGLVQAGGSLRLSCAGSGIIFHLYAMGWYRQAPGKERELVAAISWNGSSTYYADSVKGRFTISRDNAKNTVYLQMNSLKPEDTAVYYCAASYGYFEDYGYWGQGTQVTVSS | low polyreactivity
QVQLVESGGGLVQAGGSLRLSCAGSGRIFGGYAMGWYRQAPGTERELVAAISRRGGSTYYADSVKGRFTISRDNAKNTVYLQMNSLKPEDTAVYYCARDYGGVGAPGSAGAYDYWGQGTQVTVSS | high polyreactivity
QVQLVESGGGLVQAGGSLRLSCAGSGRIFSENAMGWYRQAPGKERELVAAISVSGGSTYYADSVKGRFTISRDNAKNTVYLQMNSLKPEDTAVYYCAAEYLAYYSGYDYWGQGTQVTVSS | high polyreactivity
QVQLVESGGGLVQAGGSLRLSCAGSGSIFYQYAMGWYRQAPGKERELVAAISDSGGSTHYADSVKGRFTISRDNAKNTVYLQMNSLKPEDTAVYYCPANLYYQYGGDYWGQGSQVTVSS | low polyreactivity
QVQLVESGGGLVQAGGSLRLSCAGSGSIFYSNAMGWSRPAPGKERELVAAICWNGGRTYYADSVKGRFTISRDNAKNTVYLQMNSLKPEDTAVYYCAAKYRNRYDYWGHGTQVTVSS | low polyreactivity
QVQLVESGGGLVQAGGSLRLSCAGSGSTFPRYPMGWYRQAPGKERELVAAISYSGGRTYYADSVKGRFTISRDYAKNTVYLQMNSLKAEDTAVYYCKKRWRGAGTSYDYWGQGTQGTVSS | high polyreactivity
QVQLVESGGGLVQAGGSLRLSCAGSGSTFRSNAMGWYRQAPGKERELVAAISRSGGRTYYADSVKGRFTISRDNAKNTVYLQMNSLKPEDTAVYYCNTVLKRQRKNEYWGQGTQVTVSS | high polyreactivity
QVQLVESGGGLVQAGGSLRLSCAGSGSTLTWNDMGWYRHAPGKERELVASITQSGDSTYYADSVKGRFTISRDNAKNTVYLQMNSLKPEDTAVYYCSGVYTYPLGYYHYTYDYWGQGTQVTVSS | low polyreactivity
QVQLVESGGGLVQAGGSLRLSCAPCGSIFSSYAMGWYRQAPGQDWELVAAISSGGCITYYADSVKGRFTISRDNAKNTVYLQMHSLKPEDTAVYYCNARVARSNYGWYYDWGQGTQVTVSS | high polyreactivity
QVQLVESGGGLVQAGGSLRLSCAPSAGTFSPYDMGWSRQSPGKQRELVASITGSGGSTYFADSVKGRFTISRGNAKNTVYLQMNSLKPEDTAVYYCDAQGYWTYWPYLLRLYDYWGQGTQVTVSS | low polyreactivity
QVQLVESGGGLVQAGGSLRLSCAPSGFIFGSHAMGWYRQARGKERELVAAISARGGRTYYADSVKERFTISRDNAKNTVYLQMNSLKPADSAVYYCATLDTTGVNYWGQGTQVTVSS | high polyreactivity
QVQLVESGGGLVQAGGSLRLSCAPSGFIFGSYAMGWYTQAPGKERELVAAISRSGGRTYYADSVKGRFTISRDNAKNTVYLQMNSLKPEDSAVYYCAAVHLLVYPTYDSWGQGTQVTVSS | high polyreactivity

Sequence | polyreactivity (PSR sort gate)
QVQLVESGGGLVQAGGSLRLSCAPSGFIFHKYVMGWYRQAPGKERELVAAISRSGASTYYADSVKGRFTISRDNAKNTVYLQMNSLKPEDTAVYYCNAQPGKWEYDYWGQGTQVTVSS | high polyreactivity
QVQLVESGGGLVQAGGSLRLSCAPSGFIFYFYTMGRYRQAPGKEMELVAGITWLDGSTYYADSVKGRLTISRDNAKNTVYLQRNSLKPEDTAVYYCAVDYDLVVSPYYYWGQGTQVTVSS | low polyreactivity
QVQLVESGGGLVQAGGSLRLSCAPSGFTFRFYVMGWYRQAPGKERELVAAISSSGGSTYYADSVKGRFTISRDNAKYTVYLQMNSMKPEDTAVYYCAADVPGARVSYWTYSGWHYDYWGQGTQVTVSS | high polyreactivity
QVQLVESGGGLVQAGGSLRLSCAPSGGTFVSYVMGWYRQAPGKERELVAAISVSGGRTYYADSVKGRFTISRDNAKNTVYLQMNSLKPEDTAVYYCAADSVVVGSPGNDYWGQGTQVTVSS | high polyreactivity
QVQLVESGGGLVQAGGSLRLSCAPSGIIFRIYAMGWYRQAPGKEREFVAAISGSGDSTYYADSVKGRFTISRDNAKNTVYLQMNSLKPEDTAVYYCAADWTLVYYHEDYWGQGSQVTVSS | high polyreactivity
QVQLVESGGGLVQAGGSLRLSCAPSGIIFYAYAMGWYRQAPGKEREFVAAINNSGGRTYYADSVKGRFTISRDNAKNTVYLQMNSLKPEDTAVYYCAVYSYYRRTYRREMDYWGQGTQVTVSS | high polyreactivity
QVQLVESGGGLVQAGGSLRLSCAPSGISIIGYAMGWYRQAPGKVRELVASIDSGGITNYADSVKGRFTISRDNAKNTVYLQMNSLKPEDTAVYDCAARVAYFGGPYYSWGEGTQVTVSS | high polyreactivity
QVQLVESGGGLVQAGGSLRLSCAPSGLIFASYAMGWYRQAPGKERELVAAITSSGGSTYYADSVKGRFTISRDNAKNTVYLQMNSLKPEDTAVYYCAADIYTYNLFYHWRWLDYNYWGQGTQVTVSS | high polyreactivity
QVQLVESGGGLVQAGGSLRLSCAPSGNTFGRNAMGWYRQAPGKERELVAAISFSGSRTYYADSVKGRFTISRDNAKNTVYLQMSSLKPEDTAVYYCNKRGADWTGFFYYEYDYWGQGTQVTVSS | low polyreactivity
QVQLVESGGGLVQAGGSLRLSCAPSGRIFFYYVMGWYRQAPGKERELVAAITRSGGSTYYADSVKGRFTISRDNAKNTVYLQMNSLKPEDTAVYYCAVGDGFEFDWGQGTQVTVSS | low polyreactivity
QVQLVESGGGLVQAGGSLRLSCAPSGRIFHYNAMGWYRQAPGKERELVAAIDYGGSSTYYADSVKGRFTISRDNAKNTVYLEMNSLKPEDTAVYYCWGQATQVTVSS | low polyreactivity
QVQLVESGGGLVQAGGSLRLSCAPSGRIFQANAMGWYRQAPGKERELVASISSGVSTNYADYVKGRFTISRDNAKNTVYLQMNSQKQEDTGVYYCADSDPSSAYWVGYYWYDNWGQGTQVTVSS | low polyreactivity
QVQLVESGGGLVQAGGSLRLSCAPSGRIFQYYTMGWSRQAPGKDRELVATISRRGGRTYYADSVKGRFTISRDNAKNTVYLQKNSLKPEDTAVYYCAARTYSYEYDYWGQGTQVTVSS | high polyreactivity
QVQLVESGGGLVQAGGSLRLSCAPSGRIFRTNTMGWYRQAPGKERELVAAITRGGSTYYADSVKGRFTISRDNAKNTDYLQMKSLKPEDTAVYYCAASRYYNTVHNGGDYWGQGTQVTVSS | high polyreactivity
QVQLVESGGGLVQAGGSLRLSCAPSGRIFTRYAMGWYRQAPGKERELVAASSSSGGSTYYADSVKGRFTISRDNAKNTVYLQMTSLKPEDTAVYYCNRGGWYAYYWGQGTQVTVSS | high polyreactivity
QVQLVESGGGLVQAGGSLRLSCAPSGRIFYSYAMGWYRQAPGKVRELVAAIRSRGGSTRYADSVKGRFTISRDNAKNNVYLQMNSLKPEDTAVYYCAATGYQSRGSSDYWGQGTQVSVSS | high polyreactivity
QVQLVESGGGLVQAGGSLRLSCAPSGRIFYYYAKGWYRQAPGKERELVAAINSGGSTNYADSVKGRFTISRDNAKNTVYLQMNSLKPEDTAVYYCAADAKLVSEFDYWGQGTQVTVSS | low polyreactivity
QVQLVESGGGLVQAGGSLRLSCAPSGRIVYYYAMGWYRHAPGKERELVASITFSGGRTFYADSVKGRFTITRDYAKNTVYLQMNSVTPEDTAVYYGAAVRCGRRSGGLVAEYDYWGQGTQVSVSS | high polyreactivity
QVQLVESGGGLVQAGGSLRLSCAPSGRMFVFYTMGWYRPAPGKESELVAYINSGGSTYYADSVKGRFTISRDNAKNSVYLQMNSLKPEDTAVYYCAAGPCRGPDSRWRYKYDYWGQGTQVTVSS | high polyreactivity
QVQLVESGGGLVQAGGSLRLSCAPSGRTFIFYAMGWYRQAPGKERELVAAISSSGSGTYYADSLKGRFTISRDNAKNTVYLQMNSLKPEDTAVYSCAAAVVNSRRRPKYGYWGQGTQVTVSS | low polyreactivity
QVQLVESGGGLVQAGGSLRLSCAPSGRTFNYNAMGWYRQAPGKERELVAAITSSGGGTSYADSVKGRFTISRDNAKNTVYFQMNSLKPYYTAVYYCAAEVDRGKYCSTYRGGDYCGQGTQVTVSS | high polyreactivity
